In patent publication US10786536B2, “Cardiac neural crest cells and methods of use thereof” (VESTION, INC., priority 2013, dated 2020):
Entries after “also recorded” stand apart in the source; their conditions may differ.

Experiments:
Format in all cases: cell-based, mouse
EGFP^(+) cells (NCC^kit) = assay: neonatal cKit^CreERT2/IRG myocardial explant culture with or without MSC feeders, live-cell quantification of EGFP^(+) cells
Procedure: To study the mechanisms controlling migration and proliferation in postnatal cardiac NCC^kit clones, 2-day old cKit^CreERT2/IRG neonates administered a single subcutaneous injection of 50 μl of tamoxifen. The next day, 3-day old postnatal hearts (PN3) were harvested, washed in ice-cold HBSS and cleaned from unwanted tissues under a stereomicroscope. They were then transferred in a tissue-cultured hood and, after additional washing steps with DMEM under sterile conditions, were minced into ˜1 mm^3 fragments and digested in a solution of DMEM/F12, 20% FBS, 1% penicillin/streptomycin and 200 units/ml Collagenase-Type II solution at 37° C. Following that, tissue explants were collected and washed twice with DMEM. Single tissue fragments were then picked under a stereomicroscope using a pipette, and cultured individually in single wells of gelatin-coated 24-well plates, with or without 1×10^5 MSCs feeders. Samples were fed every other day. The basic myocardial explant feeding medium consisted of DMEM/F12, 15% FBS, 1% penicillin/streptomycin, 1% β-mercaptoethanol, 1000 units/ml recombinant mouse LIF, 1 ng/ml recombinant mouse bFGF, and 0.1 mM nonessential amino acids. The impact of SCF was tested by supplementing the medium with 100 ng/ml recombinant murine SCF. For cKit neutralization, 100 ng/ml of rat anti-murine cKit antibody were supplemented to the medium. For assessing the role of Sdf1/Cxcr4, AMD3100 was supplemented to the medium, at a final concentration of 1 μM. Samples were then monitored daily, and clonal growth of EGFP^(+) cells was quantified every other day for 5-8 consecutive days, under a fluorescent microscope.
Myocardial explants from these animals were collected the following day, and were cultured in the presence or absence of MSC feeders. Swine MSCs were isolated and expanded from a single, healthy Yorkshire donor as previously described. Briefly, bone marrow was obtained from the iliac crest, and aspirates were passed through a density gradient to eliminate undesired cell types and were plated with 25 ml MEM Alpha media containing 20% fetal Bovine Serum in 162 cm^2 culture flasks. At 5-7 days after plating, non-adherent cells were washed away during medium changes and the remaining, plastic adherent, purified MSC population was expanded in culture. All used cells were harvested when they reached 80-90% confluence at passage 3-4, and inactivated for 3 h at 37° C. with 10 μg/ml of mitomycin C. Inactivated porcine MSC feeders were collected by trypsinization and cryopreserved in liquid nitrogen until use. For all experiments, MSCs feeders were seeded at a concentration of 2×10^5 MSCs/ml a day before use. The responses of EGFP^(+) cells under different culture conditions were monitored daily and quantified via live-cell fluorescence imaging every other day.
The effect of MSCs on NCC^kit migration was explored because recent studies reveal a chemotactic role of Sdf1/Cxcr4 axis on NCCs. Myocardial explant cultures were generated, as described above, and screened the emergence of EGFP^(+) cells in response to AMD3100, an inhibitor of the Sdf1/Cxcr4 axis. […] Thus, Sdf1/Cxcr4 axis regulates migration and differentiation of NCC^kit.

[1] = test system: iPSC^kit-derived embryoid bodies; assay: in-vitro lineage tracing during cardiogenic differentiation of iPSC^kit-derived embryoid bodies pulsed with 4-OH tamoxifen
Description: First, to specifically address the relationship between CNC^kit and the cKit^+/Nkx2.5^+ lineage purified from mouse ES and iPSCs-derived cardiac mesoderm, iPSCs from cKit^CreERT2/IRG adult tail-tip fibroblasts (iPSC^kit) were established. iPSC^kit stably express DsRed with no leakage of EGFP (<30 passages). As with the cKit^CreERT2/IRG mice DsRed is irreversibly replaced by EGFP in iPSC^kit-derivatives upon Cre-mediated recombination, which occurs in response to treatment with 4-OH tamoxifen. […] Thus, iPSC^kit are suitable for in-vitro lineage tracing of cKit-expressing cells. Cardiomyocyte differentiation was induced by treatment of iPSC^kit-derived embryoid bodies (EB) with ascorbic acid as previously described (FIG. 17). Successful differentiation was reflected in the development of spontaneously contracting cardiomyocytes. To genetically trace whether any of the generated cardiomyocytes were progeny of cKit^+ progenitors, EBs were pulsed with 4-OH tamoxifen at selected time-points during differentiation and monitored the emergence of spontaneously beating EGFP^+ derivatives (FIG. 17). Indeed, EGFP^+ derivatives were detected in ˜45% of the spontaneously beating EBs, confirming previous findings that mouse pluripotent stem cells can be consistently directed to generate cardiomyocytes via a cKit^+ cardiomyocyte progenitor lineage (data not shown). […]

iPSC^kit = assay: quantitative gene-expression analysis during cardiogenic differentiation of iPSC^kit; conditions: noggin-treated iPSC^kit

Molecule: c1cc(CN2CCCNCCNCCCNCC2)ccc1CN1CCCNCCNCCCNCC1 [AMD3100]
- differentiation of EGFP^(+) cells into spontaneously beating/contracting cells (EGFP^(+) cells (NCC^kit); AMD3100 1 μM, compared to non-AMD3100 treated groups): massive differentiation into spontaneously contracting cardiomyocytes; also recorded: dramatic increase in the numbers of spontaneously beating EGFP^(+) cells
- migration of EGFP^(+) cells from the cultured explants (EGFP^(+) cells (NCC^kit); explants on MSC feeders): blocked the migration of EGFP^(+) cells; also recorded: blocking cell migration
- number / abundance of EGFP^(+) cells (EGFP^(+) cells (NCC^kit); explants on MSC feeders, compared to MSCs+SCF group, AMD3100 1 μM, anti-cKit antibody 100 ng/ml): significant reduction in the abundance of EGFP^(+) cells; also recorded: significantly decreased the number of EGFP^(+) cells

Molecule: O=C1O[C@H]([C@@H](O)CO)C(O)=C1O [ascorbic acid]
- spontaneously beating EBs with EGFP^+ derivatives ([1]; cardiomyocyte differentiation induced by ascorbic acid): ~45%

B1: SCF: recombinant murine SCF supplemented to the medium at 100 ng/ml (protein)
chain: KEICGNPVTDNVKDITKLVANLPNDYMITLNYVAGMDVLPSHCWLRDMVIQLSLSLTTLLDKFSNISEGLSNYSIIDKLGKIVDDLVLCMEENAPKNIKESPKRPETRSFTPEEFFSIFNRSIDAFKDFMVASDTSDCVLSSTLGPEKDSRVSVTKPFMLPPVA
- increase in proliferative capacity of EGFP^(+) cells (EGFP^(+) cells (NCC^kit); 100 ng/ml recombinant murine SCF, MSCs present): 3.5 fold
- proliferation of EGFP^(+) cells (EGFP^(+) cells (NCC^kit); SCF in the absence of MSCs): no significant differences were detected
- migration of EGFP^(+) cells from the cultured explants (EGFP^(+) cells (NCC^kit); explants on MSC feeders): neither SCF nor cKit affected EGFP^(+) cell migration

B2: noggin: BMP antagonist used for noggin-mediated antagonism of BMP signaling (protein, UniProt Q13253 28-232, looked up)
Noggin: QHYLHIRPAPSDNLPLVDLIEHPDPIFDPKEKDLNETLLRSLLGGHYDPGFMATSPPEDRPGGGGGAAGGAEDLAELDQLLRQRPSGAMPSEIKGLEFSEGLAQGKKQRLSKKLRRKLQMWLWSQTFCPVLYAWNDLGSRFWPRYVKVGSCFSKRSCSVPEGMVCKPSKSVHLTVLRWRCQRRGGQRCGWIPIQYPIISECKCSC
- generation of EGFP^+ cardiomyocytes ([1]; BMP antagonism of iPSC^kit, EBs pulsed with 4-OH tamoxifen): resulted in the generation of EGFP^+ cardiomyocytes
- expression of the epicardial progenitor cell markers WT1 and Tbx18 (iPSC^kit): transiently repressed
- expression of cKit, Wnt1, Snai2, Pax3 and MITF-H (iPSC^kit; selected time-points): dramatic upregulation
